Data taken from article PMC3261901.

Legend:
[1] = target: Trypanosoma cruzi oligopeptidase B (OPBTc), recombinant, N-terminal His-tagged (Trypanosoma cruzi (CL Brener)); experiment: SEC; Superdex 200 10/300, 25 mM Tris-HCl pH 8.0, 200 mM NaCl, room temperature, calibrated with proteins of known Stokes radii; also run with 0.5 or 1.0 M NaCl (same elution, dimer not disrupted)
[2] = target: Trypanosoma cruzi oligopeptidase B (OPBTc), recombinant, N-terminal His-tagged (Trypanosoma cruzi (CL Brener)); experiment: AUC; sedimentation velocity, 10 °C, OPBTc at 28.1, 8.4 and 1.8 µM in 25 mM Tris pH 8.0, 100 mM NaCl, 130,000 x g; c(s) analysis, s combined with the Stokes radius from SEC
[3] = target: Trypanosoma cruzi oligopeptidase B (OPBTc), recombinant, N-terminal His-tagged (Trypanosoma cruzi (CL Brener)); experiment: SEC; enzyme incubated at 28, 37, 42, 50 or 60°C for 20 min before the run; Superdex 200 10/300, 25 mM Tris-HCl pH 8.0; at 50 and 60°C a void-volume aggregate peak and a second peak of 160 kDa

Measured: stoichiometry N

Trypanosoma cruzi oligopeptidase B (OPBTc), recombinant, N-terminal His-tagged (enzyme)
2: all assays above
